Reference: doi:10.1101/2023.02.16.528799

Target: TAX peptide, Human T-cell leukemia virus type I peptide on HLA-A2 (human)
Experiment: data from Cole et al., 2013

Substance: A6-TCR after mutation of the CDR3 beta loop (PDBID 4FTV)
- fold enhancement of binding over A6-TCR: 1000 fold
